These results are taken from article PMC4831024 (Nature Communications, 2016).

This experiment has as its target T1, Ku heterodimer (Ku70/Ku80), full length, recombinant human (human, UniProt P12956 1-609; P13010 1-732).
T1 construct: Ku70, human; Ku80, human; also called recombinant Ku; full-length Ku heterodimer; source: insect cells, baculovirus expression system, purified (immobilized metal-chelate chromatography, gel filtration)
As to the kind of experiment: pull-down; 50 nM Strep-tagged WRN protein immobilised on Streptavidin Mag Sepharose beads, 50 nM recombinant untagged Ku, 1 h at 4 °C; 20 mM Hepes pH 7.5, 150 mM NaCl, 5% glycerol, 0.5 mM TCEP, 0.05% IGEPAL-CA640; SDS–PAGE, Coomassie/Instant Blue. The following applies: both partners purified.

T1 sequence (P12956 whole entry, chain 1 of 2): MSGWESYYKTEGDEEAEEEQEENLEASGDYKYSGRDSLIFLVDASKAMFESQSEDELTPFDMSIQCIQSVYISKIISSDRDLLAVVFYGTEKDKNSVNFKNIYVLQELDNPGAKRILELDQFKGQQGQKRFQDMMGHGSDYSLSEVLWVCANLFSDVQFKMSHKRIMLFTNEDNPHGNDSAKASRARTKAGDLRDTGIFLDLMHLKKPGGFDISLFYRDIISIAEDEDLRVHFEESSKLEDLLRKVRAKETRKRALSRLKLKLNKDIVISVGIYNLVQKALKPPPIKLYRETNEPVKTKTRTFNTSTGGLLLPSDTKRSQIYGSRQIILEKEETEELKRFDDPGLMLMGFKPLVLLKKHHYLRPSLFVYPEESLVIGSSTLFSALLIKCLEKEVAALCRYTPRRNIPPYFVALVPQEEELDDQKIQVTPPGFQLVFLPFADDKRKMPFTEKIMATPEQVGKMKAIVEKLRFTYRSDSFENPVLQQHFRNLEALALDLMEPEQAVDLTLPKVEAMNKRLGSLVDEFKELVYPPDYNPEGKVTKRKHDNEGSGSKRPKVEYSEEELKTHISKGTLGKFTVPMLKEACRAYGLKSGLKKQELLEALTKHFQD
T1 sequence (P13010 whole entry, chain 2 of 2): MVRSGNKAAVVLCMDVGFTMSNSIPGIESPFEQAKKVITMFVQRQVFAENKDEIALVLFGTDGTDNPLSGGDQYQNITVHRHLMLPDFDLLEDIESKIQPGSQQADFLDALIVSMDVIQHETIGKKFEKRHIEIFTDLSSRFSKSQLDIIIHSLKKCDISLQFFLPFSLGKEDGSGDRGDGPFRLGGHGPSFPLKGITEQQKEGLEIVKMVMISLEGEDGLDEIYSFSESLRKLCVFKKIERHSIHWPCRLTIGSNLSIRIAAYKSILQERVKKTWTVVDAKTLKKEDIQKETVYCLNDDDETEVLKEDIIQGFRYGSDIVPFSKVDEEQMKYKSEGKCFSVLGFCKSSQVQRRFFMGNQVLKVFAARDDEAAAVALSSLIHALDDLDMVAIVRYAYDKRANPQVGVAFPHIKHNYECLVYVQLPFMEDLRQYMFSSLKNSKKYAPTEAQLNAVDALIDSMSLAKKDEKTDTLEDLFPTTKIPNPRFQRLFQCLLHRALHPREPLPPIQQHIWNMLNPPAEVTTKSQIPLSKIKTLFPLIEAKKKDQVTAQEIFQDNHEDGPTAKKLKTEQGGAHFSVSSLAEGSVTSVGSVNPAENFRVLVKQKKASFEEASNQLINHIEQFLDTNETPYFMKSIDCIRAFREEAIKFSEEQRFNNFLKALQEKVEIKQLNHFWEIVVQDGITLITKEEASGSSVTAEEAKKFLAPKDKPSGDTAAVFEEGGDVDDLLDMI

B1: Strep-tagged WRN^W18G (natural protein)
chain: not shown
notes: Werner syndrome protein (WRN), human, full length, W18G; source: insect cells, baculovirus expression system, purified (Strep-Tactin Superflow Plus cartridge, Superose 6 gel filtration)
With B1, the binding result is “binds”.
